Test [1] has as its target acetylcholine receptor. Nature of the test: SPR, AchR on CM5 chip, peptide 10 µM.
The target in test [2] is acetylcholine receptor. Nature of the test: SPR, acetylcholine receptor on CM5 chip, peptide at 10 uM.

RKESVR [6mer-1-1157] came in with a Binding affinity (RU) with acetylcholine receptor [1] of 36 RU. In the test with acetylcholine receptor [2], RKVYRK [6mer-1-593] returned a Binding affinity (RU) of 148 RU. For the molecule KKHTER [6mer-1-1135], the Binding affinity (RU) in the test with acetylcholine receptor [1] was found to be 26 RU. Turning to KRNMHK [6mer-1-1141], the Binding affinity (RU) with acetylcholine receptor [1] was 40 RU.

As for KKCMGR [6mer-1-1144], in the test with acetylcholine receptor [1], the Binding affinity (RU) is 25 RU. The molecule RKSRQK [6mer-1-585] showed a Binding affinity (RU) with acetylcholine receptor [2] of 144 RU. Still for that read-out and setting: the figure for KKLYQR [6mer-1-599] is 124 RU. In the test with acetylcholine receptor [1], KKPNIK [6mer-1-1133] came in with a Binding affinity (RU) of 24 RU.

Regarding KRFTDK [6mer-1-1137], the Binding affinity (RU) in the test with acetylcholine receptor [1] is 33 RU. On to RKCEKR [6mer-1-1154], for which the Binding affinity (RU) with acetylcholine receptor [1] is 41 RU. For KRDCFR [6mer-1-1138], in the test with acetylcholine receptor [1], the Binding affinity (RU) worked out at 21 RU. In the test with acetylcholine receptor [2], RKRQRR [6mer-1-576] yielded a Binding affinity (RU) of 153 RU.

On to KRMSWK [6mer-1-1134], for which the Binding affinity (RU) with acetylcholine receptor [1] was 22 RU.

In the test with acetylcholine receptor [2], RKGVTK [6mer-1-590] displayed a Binding affinity (RU) of 142 RU.

The molecule KRVLLR [6mer-1-573] came in with a Binding affinity (RU) with acetylcholine receptor [2] of 126 RU.

Consider RRDWAK [6mer-1-1160], for which the Binding affinity (RU) in the test with acetylcholine receptor [1] was determined as 29 RU. With KKHHAK [6mer-1-1164], the Binding affinity (RU) in the test with acetylcholine receptor [1] worked out at 41 RU. In the test with acetylcholine receptor [1], KKEEKR [6mer-1-1166] registered a Binding affinity (RU) of 22 RU. KKCDHR [6mer-1-1162] displayed a Binding affinity (RU) with acetylcholine receptor [1] of 41 RU.

In the test with acetylcholine receptor [2], RKGVLR [6mer-1-596] had a Binding affinity (RU) of 148 RU. On the same count and under the same terms, the figure for KRGLYK [6mer-1-581] is 139 RU. Molecule RRAWPR [6mer-1-1159] displayed a Binding affinity (RU) with acetylcholine receptor [1] of 39 RU. The same measure, in the same setting: the figure for RRKAER [6mer-1-1132] is 31 RU. As for KKRLYR [6mer-1-591], in the test with acetylcholine receptor [2], the Binding affinity (RU) worked out at 147 RU.

KKYNPK [6mer-1-1170]: the Binding affinity (RU) in the test with acetylcholine receptor [1] was found to be 25 RU. The same measure, in the same setting: the figure for RKYKEK [6mer-1-1152] is 23 RU; for RRDCKK [6mer-1-1145] it is 40 RU.

In the case of RKCAFK [6mer-1-1163], the Binding affinity (RU) in the test with acetylcholine receptor [1] came out at 21 RU. In the case of RKAPHR [6mer-1-1147], the Binding affinity (RU) with acetylcholine receptor [1] is 35 RU.

Turning to KRGFYK [6mer-1-597], in the test with acetylcholine receptor [2], the Binding affinity (RU) came out at 148 RU. Still for that read-out and setting: the figure for KKVLYK [6mer-1-583] is 139 RU. In the case of RKMDIR [6mer-1-1169], the Binding affinity (RU) in the test with acetylcholine receptor [1] came out at 32 RU. In turn, RRWLSK [6mer-1-592] registered a Binding affinity (RU) in the test with acetylcholine receptor [2] of 135 RU. Turning to RKPMMK [6mer-1-1158], in the test with acetylcholine receptor [1], the Binding affinity (RU) stood at 33 RU. In the test with acetylcholine receptor [2], KKSLQK [6mer-1-580] registered a Binding affinity (RU) of 121 RU.

The molecule RKKEKR [6mer-1-1155] registered a Binding affinity (RU) with acetylcholine receptor [1] of 28 RU. Regarding RKWLSK [6mer-1-598], the Binding affinity (RU) with acetylcholine receptor [2] was 142 RU. With KKEKFR [6mer-1-1168], in the test with acetylcholine receptor [1], the Binding affinity (RU) is 40 RU.

Consider KKIPMK [6mer-1-1173], for which the Binding affinity (RU) with acetylcholine receptor [1] amounted to 26 RU. Molecule RRCSHR [6mer-1-1148] returned a Binding affinity (RU) with acetylcholine receptor [1] of 31 RU.

Regarding RRFNFR [6mer-1-1172], the Binding affinity (RU) in the test with acetylcholine receptor [1] was determined as 23 RU. Same read-out and setting: the figure for KKKEAK [6mer-1-1151] is 34 RU. As for KKSLCK [6mer-1-595], the Binding affinity (RU) with acetylcholine receptor [2] was found to be 121 RU. KKMENR [6mer-1-1139]: the Binding affinity (RU) in the test with acetylcholine receptor [1] worked out at 36 RU.

Regarding RRATWR [6mer-1-1165], in the test with acetylcholine receptor [1], the Binding affinity (RU) came out at 29 RU. Regarding KRVICK [6mer-1-586], the Binding affinity (RU) with acetylcholine receptor [2] amounted to 136 RU. For KRWVRR [6mer-1-575], in the test with acetylcholine receptor [2], the Binding affinity (RU) is 148 RU. Take RKMTPK [6mer-1-1149]: in the test with acetylcholine receptor [1], the Binding affinity (RU) was 30 RU.

The molecule RKQVSK [6mer-1-584] had a Binding affinity (RU) with acetylcholine receptor [2] of 127 RU.

In turn, KKQYQR [6mer-1-577] came in with a Binding affinity (RU) with acetylcholine receptor [2] of 128 RU. Take RKSYLR [6mer-1-574]: the Binding affinity (RU) with acetylcholine receptor [2] is 148 RU. The molecule KRHWVK [6mer-1-1161] showed a Binding affinity (RU) with acetylcholine receptor [1] of 40 RU. The molecule KRATMK [6mer-1-1140] displayed a Binding affinity (RU) with acetylcholine receptor [1] of 43 RU. In the case of RKGQYK [6mer-1-578], the Binding affinity (RU) with acetylcholine receptor [2] was 139 RU.

The molecule KRGYCR [6mer-1-600] displayed a Binding affinity (RU) with acetylcholine receptor [2] of 139 RU. For the molecule KKMMPK [6mer-1-1146], the Binding affinity (RU) with acetylcholine receptor [1] turned out to be 34 RU. On the same count and under the same terms, the figure for KRHEFK [6mer-1-1143] is 32 RU.

Molecule KRSVRK [6mer-1-579] returned a Binding affinity (RU) with acetylcholine receptor [2] of 148 RU. Same read-out and setting: the figure for KRQLQR [6mer-1-594] is 121 RU; for KKQLLK [6mer-1-587] it is 148 RU. In the test with acetylcholine receptor [1], KKETPR [6mer-1-1142] displayed a Binding affinity (RU) of 24 RU.

The molecule KKIEIK [6mer-1-1136] displayed a Binding affinity (RU) with acetylcholine receptor [1] of 34 RU.

For the molecule KRYTVR [6mer-1-1156], the Binding affinity (RU) in the test with acetylcholine receptor [1] came out at 37 RU. In the test with acetylcholine receptor [2], KRWFLK [6mer-1-582] showed a Binding affinity (RU) of 137 RU. In the test with acetylcholine receptor [2], KKLQQK [6mer-1-589] came in with a Binding affinity (RU) of 139 RU. On the same count and under the same terms, the figure for KRVLLK [6mer-1-572] is 126 RU.

On to KRHMMK [6mer-1-1167], for which, in the test with acetylcholine receptor [1], the Binding affinity (RU) was 42 RU. Same read-out and setting: the figure for RKHNKK [6mer-1-1153] is 23 RU; for KRKWWR [6mer-1-1150] it is 34 RU; for RKIAFK [6mer-1-1171] it is 40 RU.

RRLVRK [6mer-1-588] gave a Binding affinity (RU) with acetylcholine receptor [2] of 153 RU.

The values are drawn from patent publication US20250011363A1, “OPTIMIZED SHORTENED PEPTIDE THAT BINDS TO ACETYLCHOLINE RECEPTOR, AND USE THEREOF” (SKINMED CO., LTD., priority 2021, published 2025).
